Earlier results on one substance are cited in paper PMC2656448.

This data set addresses Histone H3 (H3K4me0) (Homo sapiens) (UniProt P68431).

For the substance AIRE PHD1 (from UniProt O43918), the Kd (as a rule, the equilibrium constant for the complex coming apart) is 5 µM.
